Laboratory results from patent US11912755B2, “Endostatin fragments and variants for use in treating fibrosis” (iBio, Inc., priority 2015, dated 2024).

Key:
[1] = Solubility of Ig Fc fusions to E3 in plant lysates; assay type: physicochemical; conditions: plant lysate, non-denaturing (normal) grind buffer
From the text: For IgG Fc expression, clarified plant lysates were run on a Western blot (Genway chicken E3 antibody). Fusions included E3 (C67A) linked to either the N-terminus of the hinge+Fc domains of IgG2, IgG3, or IgG4, or to the C-terminus of the hinge +Fc domain of IgG1. […] The E3-IgG1 fusion expressed well. The non-reducing samples all appeared to form large structures, although perhaps not as large as the END-55 (iBioCFB03) BMW multimers (FIG. 24).
For IgA/M expression, clarified plant lysates were ground in either denaturing (total) or non-denaturing buffer (soluble) and run on a Western blot (Genway chicken E3 antibody). Fusions contained E3 (C67A) linked to the N-terminus of the hinge+Fc domains of IgA1, IgA2, or IgM. The IgA1 and IgA2 fusions were insoluble in normal grind buffer. The IgM fusion had very low expression. J-chain co-expression had no obvious effect.

[2] = test system: TGF-β-induced dermal fibrosis in mouse skin; experiment: In vivo TGF-β-induced dermal fibrosis in mouse skin; conditions: 10 μg/ml intradermal with TGF-β 10 ng/ml; one week
Method: In Vivo Mouse Experiments. CB57BL6/J male mice were purchased from The Jackson Laboratory (Bar Harbor, ME). Human rE (10 μg/ml) or Endostatin peptides (10 μg/ml) in combination with TGF-β (10 ng/ml), or TGF-β alone were injected intradermally on the back of mice in a total volume of 100 μl 1×PBS. Mice were injected in two different skin sites and sacrificed one week post-injection. Skin surrounding the injection site was harvested and fixed in 10% formalin prior to embedding in paraffin.
Measurement of Skin Dermal Thickness. Six μm sections of paraffin-embedded human and mouse skin tissues were stained with hematoxylin and eosin (H&E). In some experiments, sections were stained with Masson trichrome which identifies collagens. Images were taken on a Nikon Eclipse 800 microscope. The thickness of the dermis was measured in 6 random fields of each section using the image/J® software. Data are shown in arbitrary units.
E4, a peptide representing the carboxy terminus of human endostatin, can attenuate fibrosis triggered by multiple fibrogenic factors. The anti-fibrotic effects of E4 can be detected whether administered concomitantly with or following the fibrogenic trigger. The efficacy of E4 was confirmed in […] pre-clinical models of fibrosis: a) bleomycin-induced dermal fibrosis in vivo in mouse skin, b) TGF-β induced dermal fibrosis in mouse skin, and c) bleomycin-induced pulmonary fibrosis. E4 peptide or a control peptide (E1; representing the amino terminal region of endostatin) were administered at the same time as TGF-β or bleomycin or 3-4 days following TGF-β or bleomycin. Mice were sacrificed one and two weeks after TGF-β-initiation of dermal fibrosis, and two and three weeks after bleomycin-induced pulmonary fibrosis. Two different modes of administration of the E4 peptide were also tested. It was confirmed that intraperitoneal and intratracheal administration was effective. The amount of E4 that was administered was 10 μg/ml in a total volume of 100 μl for skin and IP injections and 50 μl for IT administration.
For these studies, fibrosis was assessed by measurement of dermal thickness on H&E skin sections (skin), assessment of collagen levels by Masson Trichrome staining (skin and lung), and measurement of collagen levels by Sircol assay (lung). Furthermore, to confirm the mechanism by which E4 exerts its anti-fibrotic effects, the production of extra-cellular matrix (ECM) components, the levels of enzymes that promote matrix stabilization and thus accumulation and levels of those that degrade ECM components, and levels of transcription factors downstream of the pro-fibrotic triggers were evaluated. Results were assessed using the unpaired t test and the 3-way ANOVA (for the ID1 data).

[3] = test system: human primary lung fibroblasts; experiment: Western blot of FN, Col1α1 and α-SMA in primary lung fibroblasts; assay type: cell-based; conditions: normal human lung fibroblasts; TGF-β 24 h, then 5 μg/ml for 48 h
Method: Primary Fibroblast Culture. Human primary lung and skin fibroblasts were cultured. The explanted lungs of normal organ donors, patients with SSc or IPF, and clinically involved skin of SSc patients, a morphea patient and healthy donors were used for primary fibroblast culture. Approximately 2-cm pieces of peripheral lung and skin were minced and fibroblasts were cultured in Dulbecco's modified Eagle's medium (DMEM; Mediatech, Herndon, Va.) supplemented with 10% FBS, penicillin, streptomycin, and anti-mycotic agent, as previously described (Feghali et al., Arthritis Rheum 1999; 42:1451-7). All the cells were used between passages 3-6.
Western Blot Analysis. Cellular lysates were obtained from cultured fibroblasts as previously described (Pilewski et al., Am J Pathol 2005; 166:399-407). Briefly, 2.0×10^5 primary fibroblasts were cultured in 35-mm wells in 0.5% FBS-containing medium supplemented with 10 ng/ml of human recombinant TGF-β or PBS as vehicle control for 24 h, […] In some experiments, endostatin peptides were used without TGF-β stimulation. Cellular lysates were analyzed by Western blot. Signals were detected following incubation with horseradish peroxidase-conjugated secondary antibody and chemiluminescence (Perkin Elmer Life Sciences, Inc., Boston, Mass.). The intensity of individual bands with expected molecular sizes was semi-quantitatively analyzed using the image/J® software available at on the Internet (/rsb.info.nih.gov/ij/index.html), and normalized to individual GAPDH intensity.

[4] = test system: bleomycin-induced pulmonary fibrosis; experiment: Bleomycin mouse model of pulmonary fibrosis, plant-made E3 variants oral or IV; assay type: in vivo; conditions: oral treatment
From the text: Peptides were expressed in plants using the IBIOLAUNCH™ gene expression platform. C57BL/6 mice were given bleomycin intratracheally in conjunction with END-55 (also referred to herein as E3-Fc (C67A) and CFB03) intravenous (IV) administration, or followed by IV administration of END-55 eight days after bleomycin. The mice were sacrificed at day 12 and lung samples were taken for both hematoxylin and eosin (H&E) staining and hydroxyproline assay.
Pulmonary fibrosis was induced in mice using bleomycin. Animals were treated orally with E3 variants or phosphate buffered saline (PBS). Lung histology was examined, showing that orally delivered E3 variants (E3-6His-KDEL (SEQ ID NO:19) and Expanded E3-6His-KDEL(SEQ ID NO:19)) prevented bleomycin-induced pulmonary fibrosis.
For the experiments shown in FIGS. 21 and 22, pulmonary fibrosis was again induced in mice using bleomycin. […] Hydroxyproline content was measured in the lung.
To evaluate tissue fibrosis/collagen deposition, a hydroxyproline quantification assay was performed. […] Aliquots were transferred to 96-well plates, and absorbance was measured at 570 nm. Collagen content was calculated by comparison with a standard curve generated with cis-4 hydroxy-L-proline (Sigma-Aldrich), using the conversion factor of 1 μg hydroxyproline corresponding to 6.94 μg. […]

IgG1_Fc-E3_C67A: SEQ ID NO: 29, C-terminal fusion of E3 C67A to IgG1 Fc
solubility [1]: soluble

E1: synthetic peptide, amino acids 1-45 of SEQ ID NO: 2 (human endostatin) (HSHRDFQPVLHLVALNSPLSGGMRGIRGADFQCFQQARAVGLAGT; listed as Homo sapiens)
TGF-β-induced dermal fibrosis (dermal thickness) [2]: did not alter | FN and Col1α1 levels [3]: no effect

E2: synthetic peptide, amino acids 71-115 of SEQ ID NO: 2 (IVNLKDELLFPSWEALFSGSEGPLKPGARIFSFNGKDVLTHPTWP; listed as Homo sapiens)
TGF-β-induced dermal fibrosis (dermal thickness) [2]: significantly reduced

B1: E3-6His-KDEL: SEQ ID NO:15; secretory leader peptide, E3, tagged with 6X His and KDEL sequence; plant-made (protein)
chain: MGKMASLFATFLVVLVSLSLASESSASYCETWRTEAPSATGQASSLLGGRLLGQSAASCHHAYIVLCIENSFMTHHHHHHKDEL
modifications: amino acid sequence including a secretory sequence, a portion of human endostatin, and a peptide tag
notes: plant-made
bleomycin-induced pulmonary fibrosis, lung histology [4]: prevented

B2: Expanded E3-6His-KDEL: SEQ ID NO:17; E3 extended by 17 amino acids from Collagen XVIII, S→Y, C67A, ASK, 6X His KDEL (protein)
chain: MGKMASLFATFLVVLVSLSLASESSAQKSVWHGSDPNGRRLTESYCETWRTEAPSATGQAYSLLGGRLLGQSAASCHHAYIVLAIENSFMTASKHHHHHHKDEL
modifications: amino acid sequence including a secretory sequence, a portion of collagen XVIII, a portion of human endostatin having a C67A mutation, and a peptide tag
notes: E3 extended by 17 amino acids from Collagen XVIII, S→Y, C67A, ASK, 6X His KDEL
bleomycin-induced pulmonary fibrosis, lung histology [4]: prevented

B3: E3_C67A-Fc_IgA1: SEQ ID NO: 25 (protein)
chain: MGKMASLFATFLVVLVSLSLASESSASYCETWRTEAPSATGQASSLLGGRLLGQSAASCHHAYIVLAIENSFMTVPCPVPSTPPTPSPSTPPTPSPSCCHPRLSLHRPALEDLLLGSEANLTCTLTGLRDASGVTFTWTPSSGKSAVQGPPERDLCGCYSVSSVLPGCAEPWNHGKTFTCTAAYPESKTPLTATLSKSGNTFRPEVHLLPPPSEELALNELVTLTCLARGFSPKDVLVRWLQGSQELPREKYLTWASRQEPSQGTTTFAVTSILRVAAEDWKKGDTFSCMVGHEALPLAFTQKTIDRLAGKPTHVNVSVVMAEVDGTCY
modifications: E3_C67A-Fc_IgA1 fusion
solubility [1]: insoluble

B4: E3_C67A-Fc_IgA2: SEQ ID NO: 26 (protein)
chain: MGKMASLFATFLVVLVSLSLASESSASYCETWRTEAPSATGQASSLLGGRLLGQSAASCHHAYIVLAIENSFMTVPCPVPPPPPCCHPRLSLHRPALEDLLLGSEANLTCTLTGLRDASGATFTWTPSSGKSAVQGPPERDLCGCYSVSSVLPGCAQPWNHGETFTCTAAHPELKTPLTANITKSGNTFRPEVHLLPPPSEELALNELVTLTCLARGFSPKDVLVRWLQGSQELPREKYLTWASRQEPSQGTTTFAVTSILRVAAEDWKKGDTFSCMVGHEALPLAFTQKTIDRMAGKPTHVNVSVVMAEVDGTCY
modifications: E3_C67A-Fc_IgA2 fusion
solubility [1]: insoluble

B5: E3_C67A-Fc_IgG3: SEQ ID NO: 23 (protein)
chain: MGKMASLFATFLVVLVSLSLASESSASYCETWRTEAPSATGQASSLLGGRLLGQSAASCHHAYIVLAIENSFMTELKTPLGDTTHTCPRCPEPKSCDTPPPCPRCPEPKSCDTPPPCPRCPEPKSCDTPPPCPRCPAPELLGGPSVFLFPPKPKDTLMISRTPEVTCVVVDVSHEDPEVQFKWYVDGVEVHNAKTKPREEQYNSTFRVVSVLTVLHQDWLNGKEYKCKVSNKALPAPIEKTISKTKGQPREPQVYTLPPSREEMTKNQVSLTCLVKGFYPSDIAVEWESSGQPENNYNTTPPMLDSDGSFFLYSKLTVDKSRWQQGNIFSCSVMHEALHNRFTQKSLSLSPGK
modifications: E3_C67A-Fc_IgG3 fusion
solubility [1]: soluble
